Consider one substance from ChEMBL document CHEMBL2074286, “Active transport of the angiotensin-II antagonist losartan and its main metabolite EXP 3174 across MDCK-MDR1 and caco-2 cell monolayers” (Br J Pharmacol, 2000).

The subject of data set [1] is CCCCc1nc(Cl)c(CO)n1Cc1ccc(-c2ccccc2-c2nn[nH]n2)cc1. The data set is described as follows: TP_TRANSPORTER: transepithelial transport (basal to apical) in MDR1-expressing MDCK cells. Format: functional, cell-based.
The test system is the same in data set [2]. The experiment in a line: TP_TRANSPORTER: transepithelial transport (basal to apical) in Caco-2 cells. Format: functional, cell-based.

For orientation: Km means the concentration of substrate that gives half-maximal velocity.

Turning to “ATP-dependent translocase ABCB1 (Homo sapiens)”, the results for the Km in data set [1] and in data set [2] were 403 µM and 232 µM, respectively.
